The data set deals with ERBB2 (HER2) (Homo sapiens?) (UniProt P04626). Put plainly: filter. The settings on record: for Kd: same buffer, 37 C.

In general, Kd refers to a measure of binding affinity in units of concentration.

Sequence “GAGTGACCGTCTGCCTGGTTAGACTGAACGCACTGAGGGCCGCAGCCTATCTGAAGGCAGCCACACCACCAGCC [clone #10 (9-ER-N-B09_B06)]” gave a Kd (6 (n) in core = NapdU [n positions 19,20,25,34,48,50,52 = modified dU], Bmax 0.25) of 3.71 nM. For the sequence “ATGTTAGAGTTTGCCTGAGTGCCTCGCAAGGGCGTAACAA [AP001-24 (1194-34, #11 short)]”, the selectivity ratio (ERBB2 over EGFR affinity) (6 (n) = NapdU [n positions 2,4,5,10,11,12,16,20,24,35 = modified dU], affinity for ERBB2 relative to EGFR, curve in figure only) was above 1000 fold. Turning to “GAGTGACCGTCTGCCTGGTCTGAACACCGAGATTAGCCGAACGAACGGTATGGACGTCAGCCACACCACCAGCC [clone #33 (9-ER-N-F02_A09)]”, the Kd (6 (n) in core = NapdU [n positions 19,21,33,34,49,51,57 = modified dU], Bmax only 0.03) was 9.79 nM. For “GAGTGACCGTCTGCCTGATGTTAGAGTTTGCCTGAGTGCCTCGCAAGGGCGTAACAACAGCCACACCACCAGCC [clone #11 (1194-2, 9-ER-N-B12_C06)]”, the Kd (6 (n) = NapdU [n positions 19,21,22,27,28,29,33,37,41,52 = modified dU], Bmax 0.29) is 3.06 nM.

For the origin of these results see patent US20150005368.
